The text below walks through data of US20200148771A1 (HARPOON THERAPEUTICS, published 2020).

For assay [1], the target named is T1, CTLA4 (Acro Biosystems), coated on plate (UniProt P16410 37-162, limits assumed).
T1 construct: Bought antigen; the construct is not described; also called target antigen
T1 sequence (looked up): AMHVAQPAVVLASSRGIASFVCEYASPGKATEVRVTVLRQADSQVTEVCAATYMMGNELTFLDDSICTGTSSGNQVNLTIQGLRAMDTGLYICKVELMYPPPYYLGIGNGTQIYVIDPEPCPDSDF
Kind of assay: ELISA, CTLA4 coated at 1 µg/ml, detection with anti-human IgG-Fc-peroxidase. As to the method:
(§1) The affinities of the exemplary monovalent antibodies, in the prodrug and activated forms, were measured by an ELISA assay. Briefly, target antigens, CD40 or CTLA4 (both from Acro Biosystems), were coated at 1 μg/ml in a Nunc MaxiSorp plate (ThermoFisher) for 1 hour and blocked with SuperBlock (ThermoFisher). The exemplary monovalent antibodies, whether intact or matriptase-activated, were added at concentrations ranging from 0.001 to 1000 nM, as indicated in the x-axis of each plot shown in FIG. 4, and incubated for 1 hour at room temperature. Plates were washed 3 times using PBS supplemented with 0.05% Tween-20 (PBS-T). Goat anti-human IgG-Fc-peroxidase conjugate antibody (Sigma) was used at 1:10,000 dilution in PBS-T and incubated for an additional hour. Plates were washed 3 times using PBS-T, followed by development using TMB substrate (ThermoFisher), and neutralizing with 0.1 M sulfuric acid. The resulting colorimetric assay was measured at 450 nm using SpectraMax spectrophotometer (Molecular Devices).
(§2) Differential binding of the inducible monovalent antibodies in their prodrug and active forms was determined by comparing the apparent KD of the untreated (prodrug) or the protease-treated (active) forms of the inducible monovalent antibodies to their target antigens in an ELISA assay (results shown in FIG. 4).
(In general: ELISA stands for enzyme-linked immunosorbent assay.)

Assay [2] concerns the target T2, CD40 (Acro Biosystems), coated on plate (UniProt P25942 21-193).
T2 construct: Bought antigen; the construct is not described; also called target antigen
Kind of assay: ELISA, CD40 coated at 1 µg/ml, detection with anti-human IgG-Fc-peroxidase. As for the experimental part: as §1, §2

T2 sequence (P25942 21-193 limits assumed): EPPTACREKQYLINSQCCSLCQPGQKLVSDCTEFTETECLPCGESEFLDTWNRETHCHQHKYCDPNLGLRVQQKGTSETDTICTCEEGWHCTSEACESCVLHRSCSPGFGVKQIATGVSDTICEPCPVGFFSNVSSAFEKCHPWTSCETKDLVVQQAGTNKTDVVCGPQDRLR

B1: Treme-ProMonoMab, matriptase-treated (active form) (antibody, V domains shown)
VH: QVQLVESGGGVVQPGRSLRLSCAASGFTFSSYGMHWVRQAPGKGLEWVAVIWYDGSNKYYADSVKGRFTISRDNSKNTLYLQMNSLRAEDTAVYYCARDPRGATLYYYYYGMDVWGQGTTVTVSS
VL: DIQMTQSPSSLSASVGDRVTITCRASQSINSYLDWYQQKPGKAPKLLIYAASSLQSGVPSRFSGSGSGTDFTLTISSLQPEDFATYYCQQYYSTPFTFGPGTKVEIKG
notes: Same chains as the prodrug, treated overnight with 40 nM recombinant human matriptase; also called protease-treated
Take B1: the “fold difference in apparent affinity (apparent KD), matriptase-treated against untreated prodrug” value (shortened to “fold difference in apparent affinity”) in assay [1] stood at 5.3 fold.

B2: Seli-ProMonoMab, matriptase-treated (active form) (antibody, V domains shown)
VH: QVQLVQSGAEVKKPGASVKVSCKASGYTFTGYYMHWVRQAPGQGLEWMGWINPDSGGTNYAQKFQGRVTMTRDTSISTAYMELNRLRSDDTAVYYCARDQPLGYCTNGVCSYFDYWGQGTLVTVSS
VL: DIQMTQSPSSVSASVGDRVTITCRASQGIYSWLAWYQQKPGKAPNLLIYTASTLQSGVPSRFSGSGSGTDFTLTISSLQPEDFATYYCQQANIFPLTFGGGTKVEIKG
notes: Same chains as the prodrug, treated overnight with 40 nM recombinant human matriptase
B2: the “fold difference in apparent affinity” value in assay [2] is 2 fold.

B3: Dace-ProMonoMab, matriptase-treated (active form) (antibody, V domains shown)
VH: EVQLVESGGGLVQPGGSLRLSCAASGYSFTGYYIHWVRQAPGKGLEWVARVIPNAGGTSYNQKFKGRFTLSVDNSKNTAYLQMNSLRAEDTAVYYCAREGIYWWGQGTLVTVSS
VL: DIQMTQSPSSLSASVGDRVTITCRSSQSLVHSNGNTFLHWYQQKPGKAPKLLIYTVSNRFSGVPSRFSGSGSGTDFTLTISSLQPEDFATYFCSQTTHVPWTFGQGTKVEIKG
notes: as for B1
In the case of B3, the “fold difference in apparent affinity” value in assay [2] amounted to 5.1 fold.
